Patent US20090089894A1 (IOWA STATE UNIVERSITY RESEARCH FOUNDATION, published 2009)

Target: T1, pB42AD-T, SV40 large T-antigen (87-708 aa) in the pB42AD vector (SV40, UniProt P03070 87-708)
T1 construct: range 87-708; positive control prey
Assay: yeast two-hybrid positive control (FIG. 2)

T1 sequence (P03070 87-708 limits assumed): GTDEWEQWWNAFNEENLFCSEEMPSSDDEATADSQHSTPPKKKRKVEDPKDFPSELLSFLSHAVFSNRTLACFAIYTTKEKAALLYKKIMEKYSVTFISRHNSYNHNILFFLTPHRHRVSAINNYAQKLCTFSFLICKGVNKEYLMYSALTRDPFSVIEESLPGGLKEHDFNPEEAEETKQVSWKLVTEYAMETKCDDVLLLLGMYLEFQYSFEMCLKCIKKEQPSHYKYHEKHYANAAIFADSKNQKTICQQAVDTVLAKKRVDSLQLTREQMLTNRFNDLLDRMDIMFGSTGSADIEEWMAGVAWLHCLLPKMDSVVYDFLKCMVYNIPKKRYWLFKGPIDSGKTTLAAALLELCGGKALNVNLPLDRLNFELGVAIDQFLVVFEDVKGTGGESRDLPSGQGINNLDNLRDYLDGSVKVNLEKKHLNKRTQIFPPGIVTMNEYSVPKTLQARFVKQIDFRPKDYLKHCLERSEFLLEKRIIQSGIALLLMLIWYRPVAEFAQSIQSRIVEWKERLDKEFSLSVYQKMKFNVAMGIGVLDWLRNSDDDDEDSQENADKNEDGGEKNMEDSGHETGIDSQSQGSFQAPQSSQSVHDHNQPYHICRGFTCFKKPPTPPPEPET

B1: pLexA-53, murine p53 (72-390 aa) in the pLexA vector (other)
chain: PVTETPGPVAPAPATPWPLSSFVPSQKTYQGNYGFHLGFLQSGTAKSVMCTYSPPLNKLFCQLAKTCPVQLWVSATPPAGSRVRAMAIYKKSQHMTEVVRRCPHHERCSDGDGLAPPQHLIRVEGNLYPEYLEDRQTFRHSVVVPYEPPEAGSEYTTIHYKYMCNSSCMGGMNRRPILTIITLEDSSGNLLGRDSFEVRVCACPGRDRRTEEENFRKKEVLCPELPPGSAKRALPTCTSASPPQKKKPLDGEYFTLKIRGRKRFEMFRELNEALELKDAHATEESGDSRAHSSYLKTKKGQSTSRHKKTMVKKVGPDSD
notes: range 72-390; positive control bait
B1: binds.
